These results are taken from patent US20260184775A1 (Chugai, published 2026).

For one assay, the target named is T1, mouse mature TGF-beta 1 (mouse, UniProt P04202 279-390).
T1 construct: mature; also the active TGF-beta 1 released in the mouse PBMC co-culture assay
Briefly: ELISA on plate-coated mouse mature TGF-beta 1, detection with anti-human IgG-HRP. The procedure:
384-well plate was coated with mouse mature TGF-beta 1 for overnight at 4 degrees C. After four times washing with TBS-T, the plate was blocked with blocking buffer (1×TBS/tween20+0.5% BSA+1× Block ace) for 2 hours at room temperature. After four times washing with TBS-T, antibody solution was added into the plate and incubated for 2 hours at room temperature. After four times washing with TBS-T, a diluted secondary antibody (goat anti-human IgG-HRP Santa Cruz Cat.sc-2453) was add into the plate and incubated for 1 hour at room temperature. After four times washing with TBS-T, TMB solution was added into the plate and incubated for 15 min at room temperature, then 1N sulfuric acid was added to stop the reaction. The absorbance was measured at 450 nm/570 nm.
Background: ELISA stands for enzyme-linked immunosorbent assay.

Assay [1] has as its target T2, recombinant mouse latent TGF-beta 1 (Flag-tagged mouse latent TGF-beta 1) (mouse, UniProt P04202 34-390).
T2 construct: also called mouse recombinant latent TGF-beta 1
Briefly: SPR, Biacore 8K, 37 C, pH 7.4; antibody captured by anti-human Fc, latent TGF-beta 1 as analyte; 1:1 model. A general note: Surface plasmon resonance follows binding to a sensor surface in real time, without labels.

Assay [2] deals with T3, recombinant human latent TGF-beta 1 (Flag-tagged human latent TGF-beta 1) (human, UniProt P01137 34-390).
T3 construct: Latent form: LAP plus mature TGF-beta 1; also called human recombinant latent TGF-beta 1; SLC
T3 sequence (P01137 other isoform, or with tags, fused parts or gaps limits assumed): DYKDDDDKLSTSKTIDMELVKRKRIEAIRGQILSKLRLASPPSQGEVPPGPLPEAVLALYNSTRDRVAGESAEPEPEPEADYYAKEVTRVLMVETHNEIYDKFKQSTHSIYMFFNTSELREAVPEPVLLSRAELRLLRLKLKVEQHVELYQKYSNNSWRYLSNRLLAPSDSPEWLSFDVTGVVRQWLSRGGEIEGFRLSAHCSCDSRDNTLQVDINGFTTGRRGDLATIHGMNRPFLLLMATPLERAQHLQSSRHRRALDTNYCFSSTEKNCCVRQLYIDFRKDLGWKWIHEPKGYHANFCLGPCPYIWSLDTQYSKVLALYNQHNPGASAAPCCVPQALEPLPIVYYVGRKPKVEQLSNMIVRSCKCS
Briefly: SPR, Biacore T200, 37 C, pH 7.4; antibody captured by anti-human Fc, latent TGF-beta 1 at 12.5 to 200 nM as analyte; 1:1 model. The procedure: The affinities of anti-latent TGF-beta 1 antibodies binding to human latent TGF-beta 1 at pH 7.4 were determined at 37 degrees C. using Biacore T200 instrument (GE Healthcare). Anti-human Fc (GE Healthcare) was immobilized onto all flow cells of a CM4 sensor chip using an amine coupling kit (GE Healthcare). All antibodies and analytes were prepared in ACES pH 7.4 containing 20 mM ACES, 150 mM NaCl, 1.2 mM CaCl₂, 0.05% Tween 20, and 0.005% NaN₃. Each antibody was captured onto the sensor surface by anti-human Fc. Antibody capture levels were aimed at 300 resonance unit (RU). Recombinant human latent TGF-beta 1 was injected at a concentration of 12.5 to 200 nM prepared by two-fold serial dilution, followed by dissociation. Sensor surface was regenerated each cycle with 3M MgCl₂.

Assay [3] addresses T3, recombinant human latent TGF-beta 1 …. Description: SPR, Biacore 8K, 37 C, pH 7.4; antibody captured by anti-human Fc, latent TGF-beta 1 as analyte; 1:1 model.

T2 sequence (P04202 other isoform, or with tags, fused parts or gaps limits assumed): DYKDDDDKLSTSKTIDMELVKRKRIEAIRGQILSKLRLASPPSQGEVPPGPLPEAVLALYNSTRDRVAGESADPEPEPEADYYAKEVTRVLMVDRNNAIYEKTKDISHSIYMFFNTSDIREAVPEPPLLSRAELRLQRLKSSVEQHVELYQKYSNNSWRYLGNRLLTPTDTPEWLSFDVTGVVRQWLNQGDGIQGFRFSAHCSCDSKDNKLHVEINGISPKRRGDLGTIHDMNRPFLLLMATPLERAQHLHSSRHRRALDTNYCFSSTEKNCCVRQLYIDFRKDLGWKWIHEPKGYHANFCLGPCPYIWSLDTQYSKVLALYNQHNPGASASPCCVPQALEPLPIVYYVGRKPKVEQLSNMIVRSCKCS
T1 sequence (P04202 279-390 limits assumed): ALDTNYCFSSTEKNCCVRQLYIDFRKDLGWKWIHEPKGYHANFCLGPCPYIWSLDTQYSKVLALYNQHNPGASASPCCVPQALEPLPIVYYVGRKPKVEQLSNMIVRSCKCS

B1: TBA0946 (antibody, human IgG1, kappa, V domains shown)
VH: QSLEESGGRLVTPGTPLTLTCTTSGFSLNNYYMNWVRQAPGKGLEWIGLTDNDGTTYYANWAKGRFTVSKTSTTVDLKMTSPTTEDTATYFCVRDAGYSRNLWGPGTLVTVSS
VL: AYDMTQTPASVEVAVGGTVTIKCQASQSISSSLAWYQQKPGQPPKQLIYRASTLASGVSSRFKGSGSGTQFTLTISGVECADAATYYCQQTYSWSGLDNVFGGGTKVEIKR
notes: also called TBA0946bb-F1332m; TBA946
B1: in the assay with mouse mature TGF-beta 1, the binding result was “no binding (tested: 10 µg/mL)”. Moreover, in assay [1], the dissociation constant Kd (in general, the constant that tells how readily two partners part at equilibrium) was determined as 79.3 pM; the koff – broadly, the rate constant with which the complex falls apart – is 7.66e-05 s⁻¹; the kon (in general, the rate constant with which the complex forms) came out at 966000 M⁻¹ s⁻¹.

B2: TBA1300 (antibody, human IgG1, kappa, V domains shown)
VH: QEQLKESGGGLVTPGGTLTLTCTVSGFSLSNYDMSWVRQAPGKGLEWIGAIYTAGTTSYASWAKGRFTISKTSTTVDLKITSPTTEDTATYFCARGGSSFFYYAAHNIWGPGTLVTVSS
VL: AYDMTQTPASVEAAVGGTVTIKCQASQSIGSNLAWYQQKPGQPPKLLIYDASKLPSGVPSRFKGSGSGTEFTLTISDLECDDAATYYCQQYYTTSDVDNTFGGGTKVEIKR
notes: also called TBA1300ff-F1332m
For B2, in assay [2], the Kd was 38.9 pM, the koff was determined as 2.31e-05 s⁻¹ and the kon was 593000 M⁻¹ s⁻¹.

B3: TBA1277 (antibody, human IgG1, kappa, V domains shown)
VH: QSVEESGGRLVTPGTPLTLTCTASGFSLSNYDMSWVRQAPGKGLEWIGNIHTADTTSYARWAKGRFTISKTSTTVDLKITSPTSEDTATYFCARGGSDFFYYEPYNIWGPGTLVTVSS
VL: AYDMTQTPASVEAAVGGTVTVRCQASESIGSRLAWYQQKVGQPPKLLIYDASTLASGVSSRFKGSGSGTEFTLTISDLECDDAATYYCQQYYTSNNVENTFGGGTKVEIKR
notes: also called TBA1277cc-F1332m
With B3, in assay [2], the dissociation constant (Kd) came to 18.8 pM, the koff worked out at 1.63e-05 s⁻¹ and the kon stood at 867000 M⁻¹ s⁻¹.

B4: TBA1172 (antibody, human IgG1, kappa, V domains shown)
VH: QSVEESGGRLVTPGTPLTLTCTVSGFSLSNYAMGWVRQAPGKGLEWIGIISSGGVSYYASWARGRFTISKTSTTVDLKITSPTPEDTGTYFCARGQVPSSDTYYVPFNLWGPGTLVTVSS
VL: DIAMTQTPASVEAAVGGTVTIKCQASQSIGSDLAWYQQKPGQPPKLLIYRASTLASGVPLRFKGSGSGTQFTLTISDLECADAATYYCQTYYFTISSYGAFGGGTKVEIKR
notes: also called TBA1172aa-F1332m; TBS1172
As for B4, the binding result in the assay with mouse mature TGF-beta 1 was “no binding (tested: 10 µg/mL)”. Also, in assay [3], the Kd amounted to 88000 pM, the koff is 0.0229 s⁻¹ and the kon was found to be 261000 M⁻¹ s⁻¹. Further, in assay [1], the Kd was 91.9 pM, the koff was determined as 9.13e-05 s⁻¹ and the kon came out at 994000 M⁻¹ s⁻¹.

B5: TBA0947 (antibody, human IgG1, kappa, V domains shown)
VH: QSVEESGGRLVTPGTPLTLTCTVSGFSLSSYAMNWVRQAPGKGLEWIGYIYTSGTTYHANWARGRFTISKTSTTVDLKMTSLTTEDTATYFCARGTGISDYYYWVMDLWGPGTLVTVSS
VL: AFELTQTPSSVEAAVGGTVTIKCQASQSISTYLAWYQQRPGQPPKLLIYKASTLASGVPSRFKGSGSGTDFTLTISDLECADAATYFCQSYCDGDSVGFGGGTKVEIKR
notes: also called TBA0947gg-F1332m; TBA947
Regarding B5, the binding result in the assay with mouse mature TGF-beta 1 is “no binding (tested: 10 µg/mL)”. For the same molecule, in assay [3], the Kd is 7650 pM, the koff stood at 0.00224 s⁻¹ and the kon came to 292000 M⁻¹ s⁻¹. In assay [1], the Kd was found to be 41.9 pM, the koff was found to be 1.07e-05 s⁻¹ and the kon amounted to 256000 M⁻¹ s⁻¹.
